The record followed here is US20170037110A1 (IMMATICS BIOTECHNOLOGIES, published 2017).

Some results are limits rather than exact numbers.

The target in this test is T1, HLA-A*02:01 (human).
T1 construct: monomers captured on streptavidin plates; also called MHC class I
Description: UV peptide exchange ELISA. In outline:
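Read-out is an ELISA on the UV-exchange reaction: monomers, diluted 100-fold, are captured on streptavidin and the β2m light chain is detected with 2 μg/ml HRP antibody and TMB at 450 nm.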
For orientation: In an ELISA, binding on a coated surface is turned into a signal by an enzyme label.

Consider LLADELITV, for which the peptide exchange yield fell in the range of 50 to 75%.
The figure for RLAEVGQYEQV is 20 to 50%; for LLLNEEALAQI it is 50 to 75%; for GLLHLTLLL it is 50 to 75%.
MLLTKLPTI displayed a peptide exchange yield of 50 to 75%.
YTLPIASSIRL: the peptide exchange yield lay within 50 to 75%.
The figure for FLAEDPKVTL is 50 to 75%; for SVAEGRALMSV it is 50 to 75%.
In turn, LLQELVLFL yielded a peptide exchange yield of 50 to 75%.
Turning to TLAPGEVLRSV, the peptide exchange yield lay in the range of 50 to 75%.
Molecule GLLEKLTAI registered a peptide exchange yield of 50 to 75%.
Regarding VLLEAGEGLVTI, the peptide exchange yield fell in the range of 50 to 75%.
In turn, FLLEDDIHVS had a peptide exchange yield of 50 to 75%.
SMLEPVPEL displayed a peptide exchange yield of 50 to 75%.
LLDPNVKSIFV yielded a peptide exchange yield of 50 to 75%.
Molecule AMATESILHFA showed a peptide exchange yield of 50 to 75%.
The same measure for ALFDAQAQV: 50 to 75%; for ALIENLTHQI: 20 to 50%.
In turn, YQIPRTFTL displayed a peptide exchange yield of 20 to 50%.
KIFDIDEAEEGV gave a peptide exchange yield of 20 to 50%.
The figure for YLLHEKLNL is 50 to 75%; for RLLAQVPGL it is 50 to 75%.
The molecule SLMPHIPGL returned a peptide exchange yield of 50 to 75%.
The molecule FLVEKQPPQV had a peptide exchange yield of 50 to 75%.
The same measure for ILAQEQLVVGV: 50 to 75%; for TLLVKVFSV: 50 to 75%.
On to YLDPALELGPRNV, for which the peptide exchange yield fell in the range of 50 to 75%.
For the molecule ALLPASGQIAL, the peptide exchange yield was in the range of 50 to 75%.
The molecule KLIDDQDISISL gave a peptide exchange yield of 50 to 75%.
The figure for LLINSVFHV is 50 to 75%.
The molecule ALQPEPIKV displayed a peptide exchange yield of 20 to 50%.
The molecule GLIEDYEALL gave a peptide exchange yield of 50 to 75%.
The figure for FLLQHVQEL is 50 to 75%; for AVMESIQGV it is 50 to 75%; for RVWDISTVSSV it is 50 to 75%.
In turn, LLMPIPEGLTL showed a peptide exchange yield of 50 to 75%.
The molecule TLWYRSPEV came in with a peptide exchange yield of 20 to 50%.
Consider LLLAHIIAL, for which the peptide exchange yield lay in the range of 20 to 50%.
Regarding KLYSVVSQL, the peptide exchange yield fell in the range of 20 to 50%.
SLIEKVTQL: the peptide exchange yield lay in the range of 50 to 75%.
For the molecule GLLGEKTQDLIGV, the peptide exchange yield was 50 to 75%.
On to ALMERTGYSMV, for which the peptide exchange yield was in the range of 50 to 75%.
Molecule GLSDGNPSL registered a peptide exchange yield of 20 to 50%.
Molecule GLNDRSDAV returned a peptide exchange yield of 20 to 50%.
Regarding FLFDTKPLIV, the peptide exchange yield was in the range of 50 to 75%.
VMYADIGGMDI had a peptide exchange yield of 50 to 75%.
In turn, SVAPNLPAV displayed a peptide exchange yield of 50 to 75%.
The molecule SLFGNSGILENV had a peptide exchange yield of 50 to 75%.
YVLEDLEVTV registered a peptide exchange yield of 20 to 50%.
The same measure for SLAPGDVVRQV: 20 to 50%.
Molecule SLMEDQVLQL gave a peptide exchange yield of 50 to 75%.
As for FLLEPGNLEV, the peptide exchange yield is not below 75%.
For the molecule FLDPYCSASV, the peptide exchange yield lay within 20 to 50%.
In the case of SLSEIVPCL, the peptide exchange yield lay within 50 to 75%.
On to KLNAEVACV, for which the peptide exchange yield was 50 to 75%.
In turn, SLFDGFADGLGV registered a peptide exchange yield of 50 to 75%.
In turn, ALLEDSCHYL showed a peptide exchange yield of 50 to 75%.
With SLWPSPEQL, the peptide exchange yield lay within 20 to 50%.
Molecule LAVHPSGVAL came in with a peptide exchange yield of 10 to 20%.
As for NVPDSFNEV, the peptide exchange yield lay in the range of 50 to 75%.
As for VLLQKIVSA, the peptide exchange yield was in the range of 50 to 75%.
In turn, SLNHFTHSV came in with a peptide exchange yield of 50 to 75%.
KLWTGGLDNTV registered a peptide exchange yield of 50 to 75%.
The molecule AVGPASILKEV gave a peptide exchange yield of 20 to 50%.
The figure for KMWEELPEVV is 50 to 75%; for FIFSEKPVFV it is 50 to 75%; for KLLGKVETA it is 50 to 75%.
